Measurements reported in patent US20180030100A1.
Each block holds one molecule with its values, some of them ahead of it.

Key:
[1] = molecular target: Plexin A4 receptor expressed on transfected COS-7 cells; experiment: AP-conjugated ligand binding curves on COS-7 cells expressing Plexin A4, estimated affinity (FIG. 4E)
[2] = molecular target: Plexin A4 receptor expressed on transfected COS-7 cells; experiment: cell-binding assay: AP-conjugated ligand on COS-7 cells expressing Plexin A4, p-nitrophenyl phosphate, absorbance at 405 nm [cont. 1). B]
[3] = molecular target: Plexin A4 receptor expressed on transfected COS-7 cells; experiment: AP-conjugated ligand on COS-7 cells expressing Plexin A4, cell-bound AP activity with p-nitrophenyl phosphate, Scatchard plot (FIG. 4C)
[4] = molecular target: Nrp1 expressed on transfected COS cells; experiment: AP-conjugated ligand on COS cells expressing Nrp1, cell-bound AP activity with p-nitrophenyl phosphate, binding curve (FIG. 4D)
[5] = molecular target: PlexinA4 of human umbilical vein endothelial cells (human) (UniProt Q9HCM2); experiment: cell-based or functional assay
Chain of UniProt Q9HCM2 (Q9HCM2 24-1894): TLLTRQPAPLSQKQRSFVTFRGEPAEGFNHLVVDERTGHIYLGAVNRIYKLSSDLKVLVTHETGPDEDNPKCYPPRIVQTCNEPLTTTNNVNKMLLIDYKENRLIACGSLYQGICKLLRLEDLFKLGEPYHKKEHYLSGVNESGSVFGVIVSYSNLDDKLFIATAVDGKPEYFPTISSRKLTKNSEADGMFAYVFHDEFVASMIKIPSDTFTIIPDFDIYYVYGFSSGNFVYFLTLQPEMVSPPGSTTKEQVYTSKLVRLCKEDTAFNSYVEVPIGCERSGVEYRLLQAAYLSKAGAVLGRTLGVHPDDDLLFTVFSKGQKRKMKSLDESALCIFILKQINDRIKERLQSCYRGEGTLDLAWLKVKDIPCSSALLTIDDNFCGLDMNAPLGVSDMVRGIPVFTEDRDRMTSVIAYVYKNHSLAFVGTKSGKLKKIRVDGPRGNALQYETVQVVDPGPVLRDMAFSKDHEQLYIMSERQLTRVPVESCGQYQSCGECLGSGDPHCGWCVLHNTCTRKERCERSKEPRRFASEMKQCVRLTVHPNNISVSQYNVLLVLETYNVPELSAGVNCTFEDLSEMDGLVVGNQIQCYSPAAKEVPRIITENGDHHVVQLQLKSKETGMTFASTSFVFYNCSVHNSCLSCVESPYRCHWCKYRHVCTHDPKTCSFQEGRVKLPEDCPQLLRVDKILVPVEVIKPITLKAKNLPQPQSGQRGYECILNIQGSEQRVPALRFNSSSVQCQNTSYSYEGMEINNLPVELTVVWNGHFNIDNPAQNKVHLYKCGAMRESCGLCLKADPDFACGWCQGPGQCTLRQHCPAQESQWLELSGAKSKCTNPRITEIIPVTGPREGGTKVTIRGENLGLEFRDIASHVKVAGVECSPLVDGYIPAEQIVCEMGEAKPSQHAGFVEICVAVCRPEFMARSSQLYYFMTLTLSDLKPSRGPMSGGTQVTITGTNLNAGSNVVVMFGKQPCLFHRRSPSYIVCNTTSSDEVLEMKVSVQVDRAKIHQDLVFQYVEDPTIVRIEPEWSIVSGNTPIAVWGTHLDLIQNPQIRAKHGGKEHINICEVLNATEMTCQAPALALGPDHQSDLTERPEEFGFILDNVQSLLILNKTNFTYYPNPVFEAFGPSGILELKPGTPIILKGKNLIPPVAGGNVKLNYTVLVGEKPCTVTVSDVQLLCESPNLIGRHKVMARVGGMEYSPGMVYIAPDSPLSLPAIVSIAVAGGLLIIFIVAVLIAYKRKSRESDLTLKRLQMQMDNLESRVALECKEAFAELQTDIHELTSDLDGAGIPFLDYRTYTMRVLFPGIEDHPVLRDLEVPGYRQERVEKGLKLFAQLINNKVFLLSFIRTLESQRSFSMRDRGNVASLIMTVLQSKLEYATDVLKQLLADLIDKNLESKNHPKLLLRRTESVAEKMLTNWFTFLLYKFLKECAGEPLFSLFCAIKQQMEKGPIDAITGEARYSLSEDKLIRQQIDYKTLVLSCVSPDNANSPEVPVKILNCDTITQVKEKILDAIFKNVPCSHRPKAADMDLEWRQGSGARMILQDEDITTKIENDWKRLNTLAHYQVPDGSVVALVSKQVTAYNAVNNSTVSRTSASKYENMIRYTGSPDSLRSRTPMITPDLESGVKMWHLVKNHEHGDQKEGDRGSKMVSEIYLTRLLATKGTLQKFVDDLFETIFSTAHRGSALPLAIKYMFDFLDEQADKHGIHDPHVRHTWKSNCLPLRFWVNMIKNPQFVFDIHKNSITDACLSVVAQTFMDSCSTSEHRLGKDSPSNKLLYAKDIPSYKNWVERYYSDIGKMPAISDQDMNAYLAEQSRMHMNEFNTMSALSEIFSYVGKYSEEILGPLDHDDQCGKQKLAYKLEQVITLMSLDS

Kd [1]: 200000 pM
Molecule: alkaline phosphatase (AP)-conjugated mutant Sema3A ΔIg-b (from UniProt P05187 23-511) (ligand)

Kd [1]: 700 pM | EC50 (read off the curve) [2]: 500 pM | Kd [3]: 700 pM
Molecule: alkaline phosphatase (AP)-conjugated mutant Sema3A A106K ΔIg-b (from UniProt P05187 23-511) (ligand)

Kd [1]: 7000 pM | Kd [4]: 1100 pM
B1: alkaline phosphatase (AP)-conjugated Sema3A WT (ligand, not shown: large carriers)
chain: NYANGKNNVPRLKLSYKEMLESNNVITFNGLANSSSYHTFLLDEERSRLYVGAKDHIFSFNLVNIKDFQKIVWPVSYTRRDECKWAGKDILKECANFIKVLEAYNQTHLYACGTGAFHPICTYIEVGHHPEDNIFKLQDSHFENGRGKSPYDPKLLTASLLIDGELYSGTAADFMGRDFAIFRTLGHHHPIRTEQHDSRWLNDPRFISAHLIPESDNPEDDKVYFFFRENAIDGEHSGKATHARIGQICKNDFGGHRSLVNKWTTFLKARLICSVPGPNGIDTHFDELQDVFLMNSKDPKNPIVYGVFTTSSNIFKGSAVCMYSMSDVRRVFLGPYAHRDGPNYQWVPYQGRVPYPRPGTCPSKTFGGFDSTKDLPDDVITFARSHPAMYNPVFPINNRPIMIKTDVNYQFTQIVVDRVDAEDGQYDVMFIGTDVGTVLKVVSVPKETWHDLEEVLLEEMTVFREPTTISAMELSTKQQQLYIGSTAGVAQLPLHRCDIYGKACAECCLARDPYCAWDGSSCSRYFPTAKRRTRRQDIRNGDPLTHCSDLQHHDNHHGPSLEERIIYGVENSSTFLECSPKSQRALVYWQFQRRNEDRKEEIRMGDHIIRTEQGLLLRSLQKKDSGNYLCHAVEHGFMQTLLKVTLEVIDTEHLEELLHKDDDGDGSKIKEMSSSMTPSQKVWYRDFMQLINHPNLNTMDEFCEQVWKRDRKQRRQRPGHSQGSSNKWKHMQESKKGRNRRTHEFERAPRSV

Relative migration of ECs towards type I collagen at 3 h:45 m, 0.2 nM (xCELLigence) [5]: 60 % of control | Relative migration of ECs towards type I collagen at 3 h:45 m, 0.9 nM (xCELLigence) [5]: 64 % of control | Relative migration of ECs towards type I collagen at 3 h:45 m, 3.5 nM (xCELLigence) [5]: 55 % of control | activation of ERK 1/2 phosphorylation in ECs (Western blot, 15 minutes) [5]: 3.9 fold
B2: mouse Fc-tagged Sema3A A106K ΔIg-b (Fc fusion)
chain: NYANGKNNVPRLKLSYKEMLESNNVITFNGLANSSSYHTFLLDEERSRLYVGAKDHIFSFNLVNIKDFQKIVWPVSYTRRDECKWKGKDILKECANFIKVLEAYNQTHLYACGTGAFHPICTYIEVGHHPEDNIFKLQDSHFENGRGKSPYDPKLLTASLLIDGELYSGTAADFMGRDFAIFRTLGHHHPIRTEQHDSRWLNDPRFISAHLIPESDNPEDDKVYFFFRENAIDGEHSGKATHARIGQICKNDFGGHRSLVNKWTTFLKARLICSVPGPNGIDTHFDELQDVFLMNSKDPKNPIVYGVFTTSSNIFKGSAVCMYSMSDVRRVFLGPYAHRDGPNYQWVPYQGRVPYPRPGTCPSKTFGGFDSTKDLPDDVITFARSHPAMYNPVFPINNRPIMIKTDVNYQFTQIVVDRVDAEDGQYDVMFIGTDVGTVLKVVSVPKETWHDLEEVLLEEMTVFREPTTISAMELSTKQQQLYIGSTAGVAQLPLHRCDIYGKACAECCLARDPYCAWDGSSCSRYFPTGCKPCICTVPEVSSVFIFPPKPKDVLTITLTPKVTCVVVDISKDDPEVQFSWFVDDVEVHTAQTQPREEQFNSTFRSVSELPIMHQDWLNGKEFKCRVNSAAFPAPIEKTISKTKGRPKAPQVYTIPPPKEQMAKDKVSLTCMITDFFPEDITVEWQWNGQPAENYKNTQPIMDTDGSYFVYSKLNVQKSNWEAGNTFTCSVLHEGLHNHHTEKSLSHSPGK
